One block for each binder: values may come before it.
B1: 6× His human Eps15-MD (530–791) (domain or fragment, UniProt P42566 530-791, looked up)
chain: STSSSETANLNEHVEGQSNLESEPIHQESPARSSPELLPSGVTDENEVTTAVTEKVCSELDNNRHSKEEDPFNVDSSSLTGPVADTNLDFFQSDPFVGSDPFKDDPFGKIDPFGGDPFKGSDPFASDCFFRQSTDPFATSSTDPFSAANNSSITSVETLKHNDPFAPGGTVVAASDSATDPFASVFGNESFGGGFADFSTLSKVNNEDPFRSATSSSVSNVVITKNVFEETSVKSEDEPPALPPKIGTPTRPCPLPPGKRSI
notes: Eps15 motif domain, human, residues 530-791 (STSSSE…GKRSI); The His-tagged form is named for SPR; also called 6× His hEps15-MD; motif domain of Eps15; source: recombinant (pET28c), purified
B4: human β2-appendage (700–937) used for ITC (domain or fragment, UniProt P63010 700-937, looked up)
chain: IGMAPGGYVAPKAVWLPAVKAKGLEISGTFTHRQGHIYMEMNFTNKALQHMTDFAIQFNKNSFGVIPSTPLAIHTPLMPNQSIDVSLPLNTLGPVMKMEPLNNLQVAVKNNIDVFYFSCLIPLNVLFVEDGKMERQVFLATWKDIPNENELQFQIKECHLNADTVSSKLQNNNVYTIAKRNVEGQDMLYQSLKLTNGIWILAELRIQPGNPNYTLSLKCRAPEVSQYIYQVYDSILKN
notes: AP2 β2-adaptin appendage domain, human, residues 700-937; also called wild-type β2-appendage; β-appendage

Key:
Experiment in all cases: ITC; VP-ITC; 100 mM HEPES, 50 mM NaCl, 2 mM DTT pH 7.4 at 10 °C; peptides or proteins injected from the syringe into the cell
Settings in all cases: both partners purified
[1] = target: B4
[2] = target: T1, human β2-appendage (700–937) R879A used for ITC (human, UniProt P63010 700-937, R879A)
T1 construct: AP2 β2-adaptin appendage domain, human, residues 700-937; also called R879A mutant of the β-appendage
T1 sequence (looked up): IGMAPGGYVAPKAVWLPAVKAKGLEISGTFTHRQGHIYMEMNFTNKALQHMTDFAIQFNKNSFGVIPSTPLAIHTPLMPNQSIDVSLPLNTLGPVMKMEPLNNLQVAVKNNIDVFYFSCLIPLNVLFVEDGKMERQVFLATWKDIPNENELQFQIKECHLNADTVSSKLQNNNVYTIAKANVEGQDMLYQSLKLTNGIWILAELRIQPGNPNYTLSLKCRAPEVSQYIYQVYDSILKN

[3] = target: B1

Binder: B1
stoichiometry N [1]: 2

Binder: B4
Kd [3]: ~20 µM

Now from value to binder:

Kd [1]: ~2 µM
fold stronger than with the wild-type appendage [2]: 10 fold
B2: β-arrestin P-long peptide (peptide)
peptide: DDDIVFEDFARQRLKGMKDD
notes: peptide from the C-terminus of β-arrestin; also called β-arrestin peptide; arrestin peptide; source: synthetic peptide, bought: Institute of Biomolecular Sciences (University of Southampton)

Kd [1]: 46 µM
B3: Eps15 P-short peptide (peptide)
peptide: SFGDGFADFSTL
notes: peptide from Eps15; also called Eps15 peptide; source: synthetic peptide, bought: Institute of Biomolecular Sciences (University of Southampton)
